Assay results from US20230093169A1, “COMBINATIONS OF ANTIBODY CONSTRUCTS AND INHIBITORS OF CYTOKINE RELEASE SYNDROME AND USES THEREOF” (AMGEN RESEARCH (MUNCH) GMBH, priority 2020, published 2023).

How the values were obtained:
TNF-α = target: T1, TNF-α (Homo sapiens, UniProt P01375); assay: Etanercept prophylaxis for PSMA-targeting BiTE-related CRS in humans; format: in vivo
T1 construct: endogenous in cells; host or cells: human subjects (clinical cohort), in vivo
Description: Etanercept premedication occurred within two days before BiTE administration to assess whether prophylaxis with the TNF-α inhibitor decreases the frequency and severity of CRS without compromising the efficacy of the BiTE. In an initial cohort of 6 to 8 subjects, the PSMA-targeting BiTE is administered. In addition to dexamethasone prophylaxis, subjects in the cohort received prophylaxis with etanercept (50 mg subcutaneously [SC]) two days prior to each dose of PSMA-targeting BiTE in the first administration cycle.
Subject incidence of safety events, including dose-limiting toxicities (DLTs), serious adverse events (SAEs), and adverse events leading to treatment discontinuation or dose reduction, will be reviewed when at least 3 DLT-evaluable subjects complete the DLT window. Subjects receiving three individual increasing doses of PSMA-targeting BiTE with etanercept prophylaxis experienced 1 DLT/SAE (grade 3 (G3) thrombocytopenia), 1 SAE (Grade 3 (G3) Afib), 0 dose reductions, 1 discontinuation (tolerability), CRS events in cycle 1: 4 grade 2 (G2), no grade 3/4 (G3/4). […] In the latter group 1 DLT/SAE (G3 Hypoacusis), 2 SAE (grade 3 (G3) Pruritus, grade 2/3 (G2/G3) CRS), 2 dose reductions, 2 discontinuations (disease progression), and CRS events in cycle 1: 4 grade 1 (G1), 7 grade 2 (G2), 4 grade 3 (G3) were observed. In the etanercept prophylaxis group the PSMA-targeting BiTE was administered at the same dosages and frequency as in the group without etanercept prophylaxis.

[1] = cited from earlier work
[2] = tested on: VCAM-1 expression on CD31+HUVEC; assay: Blinatumumab VCAM assay: VCAM-1 on CD31+ HUVEC in co-cultures with T cells and NALM-6; format: cell-based, human; conditions: isolated T cells and NALM-6
Description: FIG. 7. VCAM-1 Expression on HUVEC in AMG 103 Co-culture Assays: VCAM-1 expression by flow cytometry. […] expression levels are expressed as Median Fluorescence Intensity (MFI). VCAM-1 expressing HUVEC are expressed as percentage of CD31+HUVEC. Error bars indicate the standard error of the mean of duplicate measurements. Two PBMC donors were used in this experiment.
The effect of blinatumomab (AMG 103) on T cell activation and the induction of VCAM-1 on endothelial cells was analyzed in co-cultures of HUVEC, isolated T cells and CD19-expressing NALM-6 target cells. VCAM-1 expression on CD31+HUVEC was analyzed by flow cytometry.

[3] = tested on: MCP-1 release in HUVEC co-cultured with CD19-expressing NALM-6 cells and human PBMC; assay: BiTE-induced MCP-1 release in co-culture of HUVEC, NALM-6 cells and human PBMC, with or without etanercept; format: cell-based; conditions: HUVEC + NALM-6 + human PBMC; after 2 and 5 hours
Excerpt: FIG. 6. AMG 103-mediated MCP-1 Secretion: MCP-1 concentrations in cell culture supernatants were quantified by the BD Cytometric CBA human MCP-1 Flex Set. Error bars in both graphs indicate the standard error of the mean of duplicate measurements.
Human umbilical vein endothelial cells (HUVEC) were co-cultured with CD19-expressing NALM-6 cells and human PBMC and increasing concentrations of BiTE® antibody construct blinatumomab (AMG 103) against CD19 in the absence or presence of etanercept. MCP-1 concentrations were determined with the BD Cytometric CBA human MCP-1 Flex set system (BD, Germany after 2 and 5 hours, respectively according to the manufacturer's instructions and are shown in FIG. 6.

[4] = subjects on PSMA-targeting BiTE with prophylaxis

T1 sequence (P01375 77-233 limits assumed): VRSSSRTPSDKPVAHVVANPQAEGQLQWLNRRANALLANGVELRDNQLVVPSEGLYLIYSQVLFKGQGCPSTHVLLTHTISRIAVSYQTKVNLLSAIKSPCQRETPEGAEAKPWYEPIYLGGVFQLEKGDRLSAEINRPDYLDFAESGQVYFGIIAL

## tocilizumab: monoclonal antibody that competes with the binding of IL-6 to its receptor, IL-6R
TNF-α; in vivo
  CRS events in cycle 1, grade 1 (G1): 4
  CRS events in cycle 1, grade 2 (G2): 7
  CRS events in cycle 1, grade 3 (G3): 4
  SAE: 2
  discontinuations: 2
  dose reductions: 2

## etanercept
TNF-α; PSMA-targeting BiTE at same dosages and frequency
  CRS safety profile compared with no premedication or premedication with tocilizumab: improves CRS safety profile
TNF-α; [4]
  CRS events in cycle 1, grade 2 (G2): 4
  CRS events in cycle 1, grade 3/4 (G3/4): no grade 3/4
  SAE: 1
  discontinuations: 1
  dose reductions: 0
TNF-α; subjects on PSMA-targeting BiTE with prophylaxis (etanercept 50 mg SC two days prior; tocilizumab 8 mg/kg two hours before first dose)
  DLT/SAE: 1
[1]; mean±SD
  half-life: 102 ± 30 h
[1]; subcutaneous, slow absorption
  time of maximum concentration [tmax], mean±SD: 69 ± 34 h
[2]
  sensitivity of AMG 103-induced VCAM-1 up-regulation to TNF blockade: sensitive
[3]
  effect on BiTE molecule (AMG 103) induced MCP-1 release: Blocked

## AMG 103: BiTE® antibody construct against CD19
[2]; co-cultures of HUVEC, flow cytometry
  VCAM-1 expression on CD31+HUVEC: up-regulated
